Results from PMC10090351, “DNA accelerates the protease inhibition of a bacterial serpin chloropin” (Frontiers in Molecular Biosciences, 2023).

Experiments:
thrombin [1] = molecular target: thrombin (UniProt P00734)
thrombin [2] = molecular target: thrombin (UniProt P00734); remark: listed apart in the source
thrombin [3] = molecular target: thrombin (UniProt P00734); remark: listed apart in the source
thrombin [4] = molecular target: thrombin (UniProt P00734); remark: listed apart in the source
thrombin [5] = molecular target: thrombin (UniProt P00734); remark: listed apart in the source
kallikrein 7 = kallikrein 7 (UniProt P49862 30-253); assay: cell-based or functional assay
Sequence of kallikrein 7 (P49862 30-253): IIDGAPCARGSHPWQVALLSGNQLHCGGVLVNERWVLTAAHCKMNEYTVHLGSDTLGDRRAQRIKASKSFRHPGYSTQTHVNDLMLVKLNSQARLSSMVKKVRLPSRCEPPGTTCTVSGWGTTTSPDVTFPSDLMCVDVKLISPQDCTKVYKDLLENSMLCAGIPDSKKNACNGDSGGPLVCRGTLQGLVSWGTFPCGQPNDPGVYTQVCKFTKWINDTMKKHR

Molecule | k obs of thrombin inhibition, 375 nM chloropin variant, 75 nM thrombin, with 0.8 nM linear plasmid DNA (thrombin [1]) [s⁻¹] | k obs of thrombin inhibition, 375 nM chloropin variant, 75 nM thrombin, without linear plasmid DNA (thrombin [1]) [s⁻¹] | k obs of thrombin inhibition, 1 uM chloropin variant, 0.1 uM thrombin, with 0.1 uM heparin (thrombin [1]) [s⁻¹] | k obs of thrombin inhibition, 1 uM chloropin variant, 0.1 uM thrombin, without heparin (thrombin [1]) [s⁻¹] | k obs of thrombin inhibition, 375 nM chloropin, 75 nM thrombin, with 0.8 nM linear plasmid DNA (thrombin [1]) [s⁻¹] | k obs of thrombin inhibition, 375 nM chloropin, 75 nM thrombin, with supercoiled plasmid DNA (thrombin [1]) [s⁻¹] | k obs of thrombin inhibition, 375 nM chloropin, 75 nM thrombin, without linear plasmid DNA (thrombin [1]) [s⁻¹] | k obs of thrombin inhibition, 375 nM chloropin, 75 nM thrombin, without supercoiled plasmid DNA (thrombin [1]) [s⁻¹] | k obs of thrombin inhibition, 1 uM chloropin, 0.1 uM thrombin, with 0.1 uM heparin (thrombin [1]) [s⁻¹] | k obs of thrombin inhibition, 1 uM chloropin, 0.1 uM thrombin, without heparin (thrombin [1]) [s⁻¹] | k 2, derived second-order inhibition rate constant (thrombin [2]) [M⁻¹ s⁻¹] | k app, apparent second-order rate constant of thrombin inhibition (residual protease activity) (thrombin [2]) [M⁻¹ s⁻¹] | stoichiometry of inhibition (SI), residual thrombin activity after 12 h with 0-2 uM chloropin (thrombin [2]) | fold increase of k obs of thrombin inhibition with low molecular weight heparin (series of concentrations, bell-shaped; 5.9-fold at 0.1 uM, maximum at 0.5 uM) (thrombin [3]) [fold] | fold increase of the rate of thrombin inhibition with linear DNA (series of concentrations; maximum around 2.4-4.8 nM) (thrombin [4]) [fold] | fold increase of the rate of thrombin inhibition with supercoiled plasmid DNA (0.05-25.6 nM, bell-shaped; 1.5-fold at 0.1 nM, maximum between 1.6 and 3.2 nM) (thrombin [4]) [fold] | second order rate constant of thrombin inhibition with DNA (thrombin [5]) [M⁻¹ s⁻¹] | stoichiometry of inhibition (SI), residual KLK7 activity after 12 h with 0-2 uM chloropin (kallikrein 7)
Chloropin K119D (natural protein) | 0.0055 | 0.0038 | 0.0555 | 0.0095 |  |  |  |  |  |  |  |  |  |  |  |  |  | 
Chloropin K268D/K269D (natural protein) | 0.0041 | 0.0035 | 0.0096 | 0.0083 |  |  |  |  |  |  |  |  |  |  |  |  |  | 
Chloropin K126D/K127D (natural protein) | 0.0035 | 0.0036 | 0.0107 | 0.0086 |  |  |  |  |  |  |  |  |  |  |  |  |  | 
chloropin (natural protein, Chlorobium limicola, UniProt B3ECZ8 54-420, looked up) ELAVDLYRNLAVTGKNLFFSPSSIETALSMTMSGARNRTERQMADVMHVGPDAMERHHAGLASFEKQLESIQKKGKVTIASSNSIWPQKNYPLAPSWLAQLKRYYGTSVTPVDYIHETEKARIAINRRVEKDTKNRIRELLKPGILDPLTRLALVNAVYFKGDWEHPFNENNTVASPFYIRQGTTGKAPLMRQSASFGYGDHDGVQVLELPYAGKKLSMIVVLPKERFGLEALEKTLTPKQFALWTANLSERKIEALLPKFRTTSAFRLDETLRHMGMTDAFDRNLADFSGMVSNSDKLYIGAVVHKAFVDVGEKGTEAAAATAVVMQLRSAMPMPVPVFKADHPFLFAIRENSTGRILFMGRISDP |  |  |  |  | 0.0142 | 0.0193 | 0.0035 | 0.0035 | 0.0667 | 0.0083 | 25000 | 14700 | 1.68 | 17.2 | 142 | 74 | 3.6e+06 | 1.55
